# Data: IntAct's records for PubMed 10228159
# B1: Protein E7 (Human papillomavirus type 16), P03129 (parent)
# chain: MHGDTPTLHEYMLDLQPETTDLYCYEQLNDSSEEEDEIDGPAGQAEPDRAHYNIVTFCCKCDSTLRLCVQSTHVDIRTLEDLLMGTLGIVCPICSQKP
# B2: Protein E7 (Human papillomavirus type 16), P03129 (parent)
# chain: B1 chain
# partner: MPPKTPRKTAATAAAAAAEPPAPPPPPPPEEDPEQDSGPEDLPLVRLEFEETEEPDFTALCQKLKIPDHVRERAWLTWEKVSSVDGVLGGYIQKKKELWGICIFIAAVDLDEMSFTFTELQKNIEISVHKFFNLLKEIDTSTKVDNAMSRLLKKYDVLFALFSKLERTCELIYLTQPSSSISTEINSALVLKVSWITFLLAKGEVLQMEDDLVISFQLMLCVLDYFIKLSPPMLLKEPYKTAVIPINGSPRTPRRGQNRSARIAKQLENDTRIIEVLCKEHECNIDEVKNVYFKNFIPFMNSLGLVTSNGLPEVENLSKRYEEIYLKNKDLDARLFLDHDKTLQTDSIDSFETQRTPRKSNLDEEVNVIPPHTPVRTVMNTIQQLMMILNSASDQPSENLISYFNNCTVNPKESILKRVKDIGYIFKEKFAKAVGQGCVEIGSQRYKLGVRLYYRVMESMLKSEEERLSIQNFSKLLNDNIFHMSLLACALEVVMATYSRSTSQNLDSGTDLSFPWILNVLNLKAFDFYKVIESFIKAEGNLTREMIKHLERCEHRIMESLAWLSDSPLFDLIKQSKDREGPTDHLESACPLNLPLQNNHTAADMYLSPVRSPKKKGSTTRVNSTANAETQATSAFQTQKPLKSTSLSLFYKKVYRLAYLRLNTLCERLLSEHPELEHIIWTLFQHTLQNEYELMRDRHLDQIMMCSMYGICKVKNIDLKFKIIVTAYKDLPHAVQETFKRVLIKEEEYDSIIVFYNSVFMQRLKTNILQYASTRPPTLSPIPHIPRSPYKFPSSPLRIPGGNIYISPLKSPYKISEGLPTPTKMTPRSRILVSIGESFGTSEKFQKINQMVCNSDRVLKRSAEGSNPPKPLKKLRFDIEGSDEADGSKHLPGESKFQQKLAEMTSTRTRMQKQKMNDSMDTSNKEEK
# Variants of: B1
# Details: with chd4_human CHD4, Q14839
# Sequence of chd4_human CHD4, Q14839 (Q14839 whole entry): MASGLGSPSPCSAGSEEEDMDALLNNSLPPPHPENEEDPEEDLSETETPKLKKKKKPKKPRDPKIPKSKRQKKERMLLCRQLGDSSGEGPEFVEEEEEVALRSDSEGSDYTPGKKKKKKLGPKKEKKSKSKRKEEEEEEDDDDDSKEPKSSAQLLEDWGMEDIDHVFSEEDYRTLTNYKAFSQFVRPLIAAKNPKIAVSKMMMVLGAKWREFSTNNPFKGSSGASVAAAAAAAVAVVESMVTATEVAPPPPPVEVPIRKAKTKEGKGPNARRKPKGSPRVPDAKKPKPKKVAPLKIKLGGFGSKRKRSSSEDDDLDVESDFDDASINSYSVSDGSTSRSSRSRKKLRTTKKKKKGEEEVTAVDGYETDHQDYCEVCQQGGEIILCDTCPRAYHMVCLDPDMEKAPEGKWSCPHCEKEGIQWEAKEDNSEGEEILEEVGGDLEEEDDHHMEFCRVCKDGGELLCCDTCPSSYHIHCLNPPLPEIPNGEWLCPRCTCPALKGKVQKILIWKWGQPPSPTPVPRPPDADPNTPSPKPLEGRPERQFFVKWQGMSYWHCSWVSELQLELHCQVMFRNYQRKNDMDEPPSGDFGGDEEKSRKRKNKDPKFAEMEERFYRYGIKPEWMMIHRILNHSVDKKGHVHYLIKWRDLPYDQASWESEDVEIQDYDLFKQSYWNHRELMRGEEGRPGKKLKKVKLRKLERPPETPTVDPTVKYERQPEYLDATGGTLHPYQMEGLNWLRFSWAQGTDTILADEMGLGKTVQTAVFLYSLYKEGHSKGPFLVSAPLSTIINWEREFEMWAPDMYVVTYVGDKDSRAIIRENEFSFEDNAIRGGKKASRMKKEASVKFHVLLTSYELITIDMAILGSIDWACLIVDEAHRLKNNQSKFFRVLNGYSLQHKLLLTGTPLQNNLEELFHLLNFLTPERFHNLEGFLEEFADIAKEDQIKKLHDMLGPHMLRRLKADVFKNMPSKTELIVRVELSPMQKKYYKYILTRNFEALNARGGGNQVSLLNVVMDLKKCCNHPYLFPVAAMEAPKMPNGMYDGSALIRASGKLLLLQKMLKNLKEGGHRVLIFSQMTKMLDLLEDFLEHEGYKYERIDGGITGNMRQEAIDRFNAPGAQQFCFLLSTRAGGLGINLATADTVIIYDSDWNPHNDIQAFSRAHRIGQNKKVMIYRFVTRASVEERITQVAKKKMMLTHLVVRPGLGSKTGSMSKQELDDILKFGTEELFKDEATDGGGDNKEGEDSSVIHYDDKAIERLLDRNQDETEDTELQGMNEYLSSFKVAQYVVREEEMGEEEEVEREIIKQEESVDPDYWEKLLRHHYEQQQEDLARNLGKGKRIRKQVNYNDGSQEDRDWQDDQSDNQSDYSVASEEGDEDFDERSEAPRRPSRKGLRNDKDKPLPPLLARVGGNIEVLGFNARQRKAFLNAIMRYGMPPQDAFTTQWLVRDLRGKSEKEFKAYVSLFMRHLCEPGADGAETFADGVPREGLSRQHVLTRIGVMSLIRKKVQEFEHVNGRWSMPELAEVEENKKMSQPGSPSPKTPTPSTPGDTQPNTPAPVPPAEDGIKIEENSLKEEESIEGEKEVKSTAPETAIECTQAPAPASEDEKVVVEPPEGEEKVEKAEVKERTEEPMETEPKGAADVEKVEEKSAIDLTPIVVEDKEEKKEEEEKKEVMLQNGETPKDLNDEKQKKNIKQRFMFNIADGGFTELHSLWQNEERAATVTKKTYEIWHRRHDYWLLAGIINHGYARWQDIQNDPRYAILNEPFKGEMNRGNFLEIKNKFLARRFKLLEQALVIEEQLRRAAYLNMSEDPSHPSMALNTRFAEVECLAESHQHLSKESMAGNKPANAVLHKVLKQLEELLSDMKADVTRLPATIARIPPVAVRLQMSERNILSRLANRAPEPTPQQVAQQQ
row,Variant,effect of a mutation on the interaction
1,L67R,decreasing interaction

# Variants of: B2
# Details: with rb_human RB1, P06400
row,Variant,effect of a mutation on the interaction
1,L67R,decreasing interaction
